B1: Neutrophil cytosol factor 2 (Homo sapiens), P19878 (parent)
chain: MSLVEAISLWNEGVLAADKKDWKGALDAFSAVQDPHSRICFNIGCMYTILKNMTEAEKAFTRSINRDKHLAVAYFQRGMLYYQTEKYDLAIKDLKEALIQLRGNQLIDYKILGLQFKLFACEVLYNIAFMYAKKEEWKKAEEQLALATSMKSEPRHSKIDKAMECVWKQKLYEPVVIPVGKLFRPNERQVAQLAKKDYLGKATVVASVVDQDSFSGFAPLQPQAAEPPPRPKTPEIFRALEGEAHRVLFGFVPETKEELQVMPGNIVFVLKKGNDNWATVMFNGQKGLVPCNYLEPVELRIHPQQQPQEESSPQSDIPAPPSSKAPGRPQLSPGQKQKEEPKEVKLSVPMPYTLKVHYKYTVVMKTQPGLPYSQVRDMVSKKLELRLEHTKLSYRPRDSNELVPLSEDSMKDAWGQVKNYCLTLWCENTVGDQGFPDEPKESEKADANNQTTEPQLKKGSQVEALFSYEATQPEDLEFQEGDIILVLSKVNEEWLEGECKGKVGIFPKVFVEDCATTDLESTRREV
B2: Four and a half LIM domains protein 2 (Homo sapiens), Q14192 (parent)
chain: MTERFDCHHCNESLFGKKYILREESPYCVVCFETLFANTCEECGKPIGCDCKDLSYKDRHWHEACFHCSQCRNSLVDKPFAAKEDQLLCTDCYSNEYSSKCQECKKTIMPGTRKMEYKGSSWHETCFICHRCQQPIGTKSFIPKDNQNFCVPCYEKQHAMQCVQCKKPITTGGVTYREQPWHKECFVCTACRKQLSGQRFTARDDFAYCLNCFCDLYAKKCAGCTNPISGLGGTKYISFEERQWHNDCFNCKKCSLSLVGRGFLTERDDILCPDCGKDI
partner: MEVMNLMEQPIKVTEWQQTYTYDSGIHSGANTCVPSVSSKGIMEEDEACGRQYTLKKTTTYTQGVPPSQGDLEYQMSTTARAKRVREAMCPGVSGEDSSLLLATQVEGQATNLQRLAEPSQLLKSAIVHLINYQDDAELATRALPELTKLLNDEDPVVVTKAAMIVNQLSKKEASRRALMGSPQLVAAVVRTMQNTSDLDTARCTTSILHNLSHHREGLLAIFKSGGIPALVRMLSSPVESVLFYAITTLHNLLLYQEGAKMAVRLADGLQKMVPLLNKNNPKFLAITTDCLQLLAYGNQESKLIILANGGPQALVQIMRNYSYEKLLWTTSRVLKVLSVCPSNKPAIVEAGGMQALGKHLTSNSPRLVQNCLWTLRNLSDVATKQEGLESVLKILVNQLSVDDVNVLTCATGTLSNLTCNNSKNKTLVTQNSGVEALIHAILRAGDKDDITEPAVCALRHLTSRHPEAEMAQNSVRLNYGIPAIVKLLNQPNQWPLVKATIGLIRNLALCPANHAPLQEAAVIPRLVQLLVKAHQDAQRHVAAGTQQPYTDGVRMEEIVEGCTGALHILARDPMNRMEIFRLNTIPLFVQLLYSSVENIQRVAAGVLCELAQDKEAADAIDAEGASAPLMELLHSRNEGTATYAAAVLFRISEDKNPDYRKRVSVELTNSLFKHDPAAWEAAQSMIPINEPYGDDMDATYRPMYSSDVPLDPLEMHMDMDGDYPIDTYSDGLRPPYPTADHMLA
B3: Keratin, type II cytoskeletal 2 epidermal (Homo sapiens), P35908 (parent)
chain: MSCQISCKSRGRGGGGGGFRGFSSGSAVVSGGSRRSTSSFSCLSRHGGGGGGFGGGGFGSRSLVGLGGTKSISISVAGGGGGFGAAGGFGGRGGGFGGGSSFGGGSGFSGGGFGGGGFGGGRFGGFGGPGGVGGLGGPGGFGPGGYPGGIHEVSVNQSLLQPLNVKVDPEIQNVKAQEREQIKTLNNKFASFIDKVRFLEQQNQVLQTKWELLQQMNVGTRPINLEPIFQGYIDSLKRYLDGLTAERTSQNSELNNMQDLVEDYKKKYEDEINKRTAAENDFVTLKKDVDNAYMIKVELQSKVDLLNQEIEFLKVLYDAEISQIHQSVTDTNVILSMDNSRNLDLDSIIAEVKAQYEEIAQRSKEEAEALYHSKYEELQVTVGRHGDSLKEIKIEISELNRVIQRLQGEIAHVKKQCKNVQDAIADAEQRGEHALKDARNKLNDLEEALQQAKEDLARLLRDYQELMNVKLALDVEIATYRKLLEGEECRMSGDLSSNVTVSVTSSTISSNVASKAAFGGSGGRGSSSGGGYSSGSSSYGSGGRQSGSRGGSGGGGSISGGGYGSGGGSGGRYGSGGGSKGGSISGGGYGSGGGKHSSGGGSRGGSSSGGGYGSGGGGSSSVKGSSGEAFGSSVTFSFR
B4: TNFAIP3-interacting protein 3 (Homo sapiens), Q96KP6 (parent)
chain: MAHFVQGTSRMIAAESSTEHKECAEPSTRKNLMNSLEQKIRCLEKQRKELLEVNQQWDQQFRSMKELYERKVAELKTKLDAAERFLSTREKDPHQRQRKDDRQREDDRQRDLTRDRLQREEKEKERLNEELHELKEENKLLKGKNTLANKEKEHYECEIKRLNKALQDALNIKCSFSEDCLRKSRVEFCHEEMRTEMEVLKQQVQIYEEDFKKERSDRERLNQEKEELQQINETSQSQLNRLNSQIKACQMEKEKLEKQLKQMYCPPCNCGLVFHLQDPWVPTGPGAVQKQREHPPDYQWYALDQLPPDVQHKANGLSSVKKVHP
B5: E3 ubiquitin-protein ligase LNX (Homo sapiens), Q8TBB1 (parent)
chain: MNQPESANDPEPLCAVCGQAHSLEENHFYSYPEEVDDDLICHICLQALLDPLDTPCGHTYCTLCLTNFLVEKDFCPMDRKPLVLQHCKKSSILVNKLLNKLLVTCPFREHCTQVLQRCDLEHHFQTSCKGASHYGLTKDRKRRSQDGCPDGCASLTATAPSPEVSAAATISLMTDEPGLDNPAYVSSAEDGQPAISPVDSGRSNRTRARPFERSTIRSRSFKKINRALSVLRRTKSGSAVANHADQGRENSENTTAPEVFPRLYHLIPDGEITSIKINRVDPSESLSIRLVGGSETPLVHIIIQHIYRDGVIARDGRLLPGDIILKVNGMDISNVPHNYAVRLLRQPCQVLWLTVMREQKFRSRNNGQAPDAYRPRDDSFHVILNKSSPEEQLGIKLVRKVDEPGVFIFNVLDGGVAYRHGQLEENDRVLAINGHDLRYGSPESAAHLIQASERRVHLVVSRQVRQRSPDIFQEAGWNSNGSWSPGPGERSNTPKPLHPTITCHEKVVNIQKDPGESLGMTVAGGASHREWDLPIYVISVEPGGVISRDGRIKTGDILLNVDGVELTEVSRSEAVALLKRTSSSIVLKALEVKEYEPQEDCSSPAALDSNHNMAPPSDWSPSWVMWLELPRCLYNCKDIVLRRNTAGSLGFCIVGGYEEYNGNKPFFIKSIVEGTPAYNDGRIRCGDILLAVNGRSTSGMIHACLARLLKELKGRITLTIVSWPGTFL
partner: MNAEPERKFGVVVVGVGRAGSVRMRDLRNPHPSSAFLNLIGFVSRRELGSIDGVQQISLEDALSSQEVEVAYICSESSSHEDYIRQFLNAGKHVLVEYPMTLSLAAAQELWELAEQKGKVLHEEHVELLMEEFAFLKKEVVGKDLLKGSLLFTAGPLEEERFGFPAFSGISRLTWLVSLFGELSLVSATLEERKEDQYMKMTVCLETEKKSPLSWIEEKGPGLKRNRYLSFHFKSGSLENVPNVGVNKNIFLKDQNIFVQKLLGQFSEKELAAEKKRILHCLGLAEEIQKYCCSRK
B6: Zinc finger protein 488 (Homo sapiens), Q96MN9 (parent)
chain: MPEWPPCLSVAPALVITMAAGKGAPLSPSAENRWRLSEPELGRGCKPVLLEKTNRLGPEAAVGRAGRDVGSAELALLVAPGKPRPGKPLPPKTRGEQRQSAFTELPRMKDRQVDAQAQEREHDDPTGQPGAPQLTQNIPRGPAGSKVFSVWPSGARSEQRSAFSKPTKRPAERPELTSVFPAGESADALGELSGLLNTTDLACWGRLSTPKLLVGDLWNLQALPQNAPLCSTFLGAPTLWLEHTQAQVPPPSSSSTTSWALLPPTLTSLGLSTQNWCAKCNLSFRLTSDLVFHMRSHHKKEHAGPDPHSQKRREEALACPVCQEHFRERHHLSRHMTSHS
partner: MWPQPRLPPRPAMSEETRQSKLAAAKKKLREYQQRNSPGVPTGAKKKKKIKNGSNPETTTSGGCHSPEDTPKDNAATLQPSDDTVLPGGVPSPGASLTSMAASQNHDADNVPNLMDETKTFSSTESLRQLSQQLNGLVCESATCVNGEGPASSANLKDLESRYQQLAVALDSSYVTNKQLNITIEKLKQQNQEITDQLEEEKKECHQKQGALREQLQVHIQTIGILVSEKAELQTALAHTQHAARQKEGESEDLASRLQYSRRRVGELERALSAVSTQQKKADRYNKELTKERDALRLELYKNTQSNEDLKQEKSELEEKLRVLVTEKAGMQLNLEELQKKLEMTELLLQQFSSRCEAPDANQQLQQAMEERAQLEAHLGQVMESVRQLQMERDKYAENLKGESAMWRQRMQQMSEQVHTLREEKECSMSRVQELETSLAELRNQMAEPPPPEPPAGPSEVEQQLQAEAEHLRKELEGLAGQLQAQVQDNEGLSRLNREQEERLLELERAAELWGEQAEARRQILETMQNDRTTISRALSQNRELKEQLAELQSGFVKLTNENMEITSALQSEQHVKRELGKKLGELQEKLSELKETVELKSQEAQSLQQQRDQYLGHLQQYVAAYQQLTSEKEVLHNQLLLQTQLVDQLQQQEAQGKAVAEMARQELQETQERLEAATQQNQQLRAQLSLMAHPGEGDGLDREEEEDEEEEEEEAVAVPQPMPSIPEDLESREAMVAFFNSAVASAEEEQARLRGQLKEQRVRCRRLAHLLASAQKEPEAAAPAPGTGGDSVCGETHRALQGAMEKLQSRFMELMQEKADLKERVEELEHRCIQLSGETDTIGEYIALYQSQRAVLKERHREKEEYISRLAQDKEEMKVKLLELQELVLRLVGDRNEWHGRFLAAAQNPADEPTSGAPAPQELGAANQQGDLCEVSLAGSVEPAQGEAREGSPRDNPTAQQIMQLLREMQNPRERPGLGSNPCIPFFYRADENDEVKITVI

Variants of: B1
Conditions: with kifa3_human KIFAP3, Q92845
kifa3_human KIFAP3, Q92845, sequence (Q92845 whole entry): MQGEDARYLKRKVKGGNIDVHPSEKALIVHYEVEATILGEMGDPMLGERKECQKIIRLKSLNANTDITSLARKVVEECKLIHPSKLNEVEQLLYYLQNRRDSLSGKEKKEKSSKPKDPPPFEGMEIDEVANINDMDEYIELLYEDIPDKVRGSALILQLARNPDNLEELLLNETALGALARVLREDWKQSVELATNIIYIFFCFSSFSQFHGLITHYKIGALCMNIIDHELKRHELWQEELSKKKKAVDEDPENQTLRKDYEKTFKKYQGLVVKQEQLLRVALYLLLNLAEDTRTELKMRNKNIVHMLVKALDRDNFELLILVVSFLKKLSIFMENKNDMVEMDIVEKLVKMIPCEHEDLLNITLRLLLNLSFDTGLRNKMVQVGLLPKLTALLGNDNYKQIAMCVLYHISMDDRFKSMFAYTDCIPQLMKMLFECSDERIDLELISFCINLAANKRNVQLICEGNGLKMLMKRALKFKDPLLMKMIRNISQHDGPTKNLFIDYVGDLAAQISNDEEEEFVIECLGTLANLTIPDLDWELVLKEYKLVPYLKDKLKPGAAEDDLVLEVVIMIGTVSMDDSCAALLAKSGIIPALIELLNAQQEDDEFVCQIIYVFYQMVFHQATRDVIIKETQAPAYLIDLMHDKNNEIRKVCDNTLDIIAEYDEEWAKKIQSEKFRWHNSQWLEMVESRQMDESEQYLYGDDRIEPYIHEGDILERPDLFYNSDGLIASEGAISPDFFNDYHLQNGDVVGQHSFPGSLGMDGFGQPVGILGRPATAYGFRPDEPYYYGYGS

effect of a mutation on the interaction	Variant
with no effect	V297A

Variants of: B2
Conditions: with plak_human JUP

effect of a mutation on the interaction	Variant
with no effect	A37S

Variants of: B3
Conditions: with KRT19, P08727
KRT19, P08727, sequence (P08727 whole entry): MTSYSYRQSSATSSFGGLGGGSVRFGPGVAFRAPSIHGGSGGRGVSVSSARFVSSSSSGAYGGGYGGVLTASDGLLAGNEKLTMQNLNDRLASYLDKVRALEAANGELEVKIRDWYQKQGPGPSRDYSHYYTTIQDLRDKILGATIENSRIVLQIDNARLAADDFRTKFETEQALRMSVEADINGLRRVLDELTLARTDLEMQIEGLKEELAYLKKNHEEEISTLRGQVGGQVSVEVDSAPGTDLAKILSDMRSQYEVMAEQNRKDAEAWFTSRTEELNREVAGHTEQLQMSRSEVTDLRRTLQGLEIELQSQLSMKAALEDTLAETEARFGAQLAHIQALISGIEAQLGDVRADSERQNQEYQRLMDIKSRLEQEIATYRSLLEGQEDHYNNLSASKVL

effect of a mutation on the interaction	Variant
with no effect	A517G

Variants of: B4
Conditions: with taxb1_human TAX1BP1, Q86VP1
taxb1_human TAX1BP1, Q86VP1, sequence (Q86VP1 whole entry): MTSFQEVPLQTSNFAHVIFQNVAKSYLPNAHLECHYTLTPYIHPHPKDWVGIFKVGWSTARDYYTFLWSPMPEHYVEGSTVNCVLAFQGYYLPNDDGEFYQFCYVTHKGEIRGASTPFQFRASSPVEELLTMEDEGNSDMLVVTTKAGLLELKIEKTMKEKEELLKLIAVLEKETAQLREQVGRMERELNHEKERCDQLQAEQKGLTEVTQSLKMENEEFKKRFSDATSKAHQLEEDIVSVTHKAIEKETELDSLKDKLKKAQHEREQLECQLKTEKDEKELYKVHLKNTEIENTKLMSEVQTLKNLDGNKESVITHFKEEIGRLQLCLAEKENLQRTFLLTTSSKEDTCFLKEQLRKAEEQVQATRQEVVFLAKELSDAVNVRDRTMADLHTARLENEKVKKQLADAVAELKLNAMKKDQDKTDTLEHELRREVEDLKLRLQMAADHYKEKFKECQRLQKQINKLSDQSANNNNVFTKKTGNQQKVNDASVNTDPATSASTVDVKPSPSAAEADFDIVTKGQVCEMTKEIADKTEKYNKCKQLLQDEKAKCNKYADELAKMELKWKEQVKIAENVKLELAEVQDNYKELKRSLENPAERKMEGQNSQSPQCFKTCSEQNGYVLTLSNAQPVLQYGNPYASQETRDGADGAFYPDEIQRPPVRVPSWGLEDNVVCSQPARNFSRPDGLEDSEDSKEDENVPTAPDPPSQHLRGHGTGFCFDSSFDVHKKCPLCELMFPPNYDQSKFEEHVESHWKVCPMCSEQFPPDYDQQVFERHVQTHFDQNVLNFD

effect of a mutation on the interaction	Variant
with no effect	K99E

Variants of: B5
Conditions: with biea_human BLVRA

effect of a mutation on the interaction	Variant
with no effect	R342H

Variants of: B6
Conditions: with goga2_human GOLGA2, Q08379

effect of a mutation on the interaction	Variant
with no effect	A72V

From IntAct's records for PubMed 31515488
